This data set deals with the molecule itself. As to the kind of experiment: cross-linking; coelomocytes infected with 10^8 CFU/ml AJ01 for 3 h; Triton X-100 insoluble pellet cross-linked 30 min at room temperature (DSS by the legend); Western blot. Background: In western blotting, separated proteins are transferred to a membrane and probed.

These results are taken from PMC11932488, “Lytic coelomocyte death is tuned by cleavage but not phosphorylation of MLKL in echinoderms” (PLOS Pathogens, 2025).

One may read the stoichiometry N as the number of molecules, sites or subunits per partner or assembly.

B1: AjCASP-1 (cysteine-aspartic specific protease-1 of Apostichopus japonicus), endogenous (enzyme, UniProt A0A6G5QC75 1-299, looked up)
chain: MAVADIPSSDYVFRERKRPIRGDEPSAIHFNLRYDMQQQTRGFAHIFNNDIFQKMDDRKGTRKDRDNLKETFTNLGFKVRVHDDCTASEIRDILLEASKVDHSDFDCFLCVFLTHGDDGIIYGSDGEPESFKGNGSVHSTNRTWLRLNDDVFDIFRGNNCSTLIGKPKIFIIQACRGGTAEFSAMIGSAATDYEEPLETSVGVKVTIPTEADFLISYSSSEGYYSFRELYKGTWFIQDLTRVLNEFGRNGDFIRMLTVVNKLVSERAIQGSGKPELEGKKQMPCFLSKLTRQLHLTAQT
notes: AjCASP-1, caspase-1 of Apostichopus japonicus, MH807451; 34 kDa monomer, self-cleaved to p20 (25 kDa) after AJ01 infection; In infected cells both the uncleaved and the self-cleaved form are present; also called AjCaspase-1; source: endogenous, A. japonicus coelomocyte lysate (uninfected or AJ01-infected)
On to B1, for which the “stoichiometry N” value came to 2.
